Source: the supplement of paper PMC5998384

Assays:
HeLa Kyoto [1] = test: solubility in G1/S (NP-40 vs SDS abundance) (log2 ratio); higher = more soluble; conditions: cell cycle stage: G1/S
HeLa Kyoto [2] = test: solubility change mitosis vs G1/S (difference of NP-40 vs SDS log2 ratios) (log2 ratio difference); higher = more soluble in mitosis
HeLa Kyoto [3] = test: melting temperature (median over replicates), in situ; higher = more thermally stable
HeLa Kyoto [4] = test: thermal stability score vs G1/S (z-score of summed log2 fold changes over temperatures); higher = more thermally stable than in G1/S
[5] = cell cycle stage: early G1 (4.5 h after nocodazole release)
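Throughout, for melting temperature (median over replicates), in situ: HeLa Kyoto cells synchronized by double thymidine or nocodazole block, proteins quantified by TMT10plex mass spectrometry, three independent biological replicates.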
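Throughout, for solubility change mitosis vs G1/S (difference of NP-40 vs SDS log2 ratios): synchronized HeLa Kyoto cells (double thymidine block for G1/S, nocodazole release for mitosis), protein amounts in NP-40 versus SDS lysates quantified by mass spectrometry, three biological replicates.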
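Throughout, for solubility in G1/S (NP-40 vs SDS abundance): HeLa Kyoto cells arrested at G1/S by double thymidine block, proteins quantified by TMT10plex mass spectrometry in mild NP-40 versus SDS extracts, three biological replicates.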
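Throughout, for thermal stability score vs G1/S (z-score of summed log2 fold changes over temperatures): synchronized HeLa Kyoto cells, proteins quantified by TMT10plex mass spectrometry, three biological replicates, mitosis taken 0.5 h after nocodazole release, G1/S directly after double thymidine block.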

Sequence	solubility in G1/S (log2) (HeLa Kyoto [1])	solubility change mitosis (log2) (HeLa Kyoto [2])	melting temperature (HeLa Kyoto [3]; cell cycle stage: G1/S) [°C]	melting temperature (HeLa Kyoto [3]; cell cycle stage: mitosis) [°C]	thermal stability score (HeLa Kyoto [4]; [5])	thermal stability score (HeLa Kyoto [4]; cell cycle stage: mitosis)
MGLADASGPRDTQALLSATQAMDLRRRDYHMERPLLNQEHLEELGRWGSAPRTHQWRTWLQCSRARAYALLLQHLPVLVWLPRYPVRDWLLGDLLSGLSVAIMQLPQGLAYALLAGLPPVFGLYSSFYPVFIYFLFGTSRHISVGTFAVMSVMVGSVTESLAPQALNDSMINETARDAARVQVASTLSVLVGLFQVGLGLIHFGFVVTYLSEPLVRGYTTAAAVQVFVSQLKYVFGLHLSSHSGPLSLIYTVLEVCWKLPQSKVGTVVTAAVAGVVLVVVKLLNDKLQQQLPMPIPGELLTLIGATGISYGMGLKHRFEVDVVGNIPAGLVPPVAPNTQLFSKLVGSAFTIAVVGFAIAISLGKIFALRHGYRVDSNQELVALGLSNLIGGIFQCFPVSCSMSRSLVQESTGGNSQVAGAISSLFILLIIVKLGELFHDLPKAVLAAIIIVNLKGMLRQLSDMRSLWKANRADLLIWLVTFTATILLNLDLGLVVAVIFSLLLVVVRTQMPHYSVLGQVPDTDIYRDVAEYSEAKEVRGVKVFRSSATVYFANAEFYSDALKQRCGVDVDFLISQKKKLLKKQEQLKLKQLQKEEKLRKQAASPKGASVSINVNTSLEDMRSNNVEDCKMMQVSSGDKMEDATANGQEDSKAPDGSTLKALGLPQPDFHSLILDLGALSFVDTVCLKSLKNIFHDFREIEVEVYMAACHSPVVSQLEAGHFFDASITKKHLFASVHDAVTFALQHPRPVPDSPVSVTRL [SLC26A6]	-0.00184	-0.0476	56.6	56	-1.84	-2.56
MGLLAFLKTQFVLHLLVGFVFVVSGLVINFVQLCTLALWPVSKQLYRRLNCRLAYSLWSQLVMLLEWWSCTECTLFTDQATVERFGKEHAVIILNHNFEIDFLCGWTMCERFGVLGSSKVLAKKELLYVPLIGWTWYFLEIVFCKRKWEEDRDTVVEGLRRLSDYPEYMWFLLYCEGTRFTETKHRVSMEVAAAKGLPVLKYHLLPRTKGFTTAVKCLRGTVAAVYDVTLNFRGNKNPSLLGILYGKKYEADMCVRRFPLEDIPLDEKEAAQWLHKLYQEKDALQEIYNQKGMFPGEQFKPARRPWTLLNFLSWATILLSPLFSFVLGVFASGSPLLILTFLGFVGAASFGVRRLIGVTEIEKGSSYGNQEFKKKE [AGPAT3]	-0.0836	-0.0117	52.2	52.4	-0.691	-1.45
MGLLLMILASAVLGSFLTLLAQFFLLYRRQPEPPADEAARAGEGFRYIKPVPGLLLREYLYGGGRDEEPSGAAPEGGATPTAAPETPAPPTRETCYFLNATILFLFRELRDTALTRRWVTKKIKVEFEELLQTKTAGRLLEGLSLRDVFLGETVPFIKTIRLVRPVVPSATGEPDGPEGEALPAACPEELAFEAEVEYNGGFHLAIDVDLVFGKSAYLFVKLSRVVGRLRLVFTRVPFTHWFFSFVEDPLIDFEVRSQFEGRPMPQLTSIIVNQLKKIIKRKHTLPNYKIRFKPFFPYQTLQGFEEDEEHIHIQQWALTEGRLKVTLLECSRLLIFGSYDREANVHCTLELSSSVWEEKQRSSIKTVELIKGNLQSVGLTLRLVQSTDGYAGHVIIETVAPNSPAAIADLQRGDRLIAIGGVKITSTLQVLKLIKQAGDRVLVYYERPVGQSNQGAVLQDNFGQLEENFLSSSCQSGYEEEAAGLTVDTESRELDSEFEDLASDVRAQNEFKDEAQSLSHSPKRVPTTLSIKPLGAISPVLNRKLAVGSHPLPPKIQSKDGNKPPPLKTSEITDPAQVSKPTQGSAFKPPVPPRPQAKVPLPSADAPNQAEPDVLVEKPEKVVPPPLVDKSAEKQAKNVDAIDDAAAPKQFLAKQEVAKDVTSETSCPTKDSSDDRQTWESSEILYRNKLGKWTRTRASCLFDIEACHRYLNIALWCRDPFKLGGLICLGHVSLKLEDVALGCLATSNTEYLSKLRLEAPSPKAIVTRTALRNLSMQKGFNDKFCYGDITIHFKYLKEGESDHHVVTNVEKEKEPHLVEEVSVLPKEEQFVGQMGLTENKHSFQDTQFQNPTWCDYCKKKVWTKAASQCMFCAYVCHKKCQEKCLAETSVCGATDRRIDRTLKNLRLEGQETLLGLPPRVDAEASKSVNKTTGLTRHIINTSSRLLNLRQVSKTRLSEPGTDLVEPSPKHTPNTSDNEGSDTEVCGPNSPSKRGNSTGIKLVRKEGGLDDSVFIAVKEIGRDLYRGLPTEERIQKLEFMLDKLQNEIDQELEHNNSLVREEKETTDTRKKSLLSAALAKSGERLQALTLLMIHYRAGIEDIETLESLSLDQHSKKISKYTDDTEEDLDNEISQLIDSQPFSSISDDLFGPSESV [PDZD8]	-0.312	-0.0986	51.8	52.2	-1.18	-0.643
MGLLSDPVRRRALARLVLRLNAPLCVLSYVAGIAWFLALVFPPLTQRTYMSENAMGSTMVEEQFAGGDRARAFARDFAAHRKKSGALPVAWLERTMRSVGLEVYTQSFSRKLPFPDETHERYMVSGTNVYGILRAPRAASTESLVLTVPCGSDSTNSQAVGLLLALAAHFRGQIYWAKDIVFLVTEHDLLGTEAWLEAYHDVNVTGMQSSPLQGRAGAIQAAVALELSSDVVTSLDVAVEGLNGQLPNLDLLNLFQTFCQKGGLLCTLQGKLQPEDWTSLDGPLQGLQTLLLMVLRQASGRPHGSHGLFLRYRVEALTLRGINSFRQYKYDLVAVGKALEGMFRKLNHLLERLHQSFFLYLLPGLSRFVSIGLYMPAVGFLLLVLGLKALELWMQLHEAGMGLEEPGGAPGPSVPLPPSQGVGLASLVAPLLISQAMGLALYVLPVLGQHVATQHFPVAEAEAVVLTLLAIYAAGLALPHNTHRVVSTQAPDRGWMALKLVALIYLALQLGCIALTNFSLGFLLATTMVPTAALAKPHGPRTLYAALLVLTSPAATLLGSLFLWRELQEAPLSLAEGWQLFLAALAQGVLEHHTYGALLFPLLSLGLYPCWLLFWNVLFWK [GPAA1]	-0.07	-0.232	53.7	53.4	0.0135	0.0397
MGLLSQGSPLSWEETKRHADHVRRHGILQFLHIYHAVKDRHKDVLKWGDEVEYMLVSFDHENKKVRLVLSGEKVLETLQEKGERTNPNHPTLWRPEYGSYMIEGTPGQPYGGTMSEFNTVEANMRKRRKEATSILEENQALCTITSFPRLGCPGFTLPEVKPNPVEGGASKSLFFPDEAINKHPRFSTLTRNIRHRRGEKVVINVPIFKDKNTPSPFIETFTEDDEASRASKPDHIYMDAMGFGMGNCCLQVTFQACSISEARYLYDQLATICPIVMALSAASPFYRGYVSDIDCRWGVISASVDDRTREERGLEPLKNNNYRISKSRYDSIDSYLSKCGEKYNDIDLTIDKEIYEQLLQEGIDHLLAQHVAHLFIRDPLTLFEEKIHLDDANESDHFENIQSTNWQTMRFKPPPPNSDIGWRVEFRPMEVQLTDFENSAYVVFVVLLTRVILSYKLDFLIPLSKVDENMKVAQKRDAVLQGMFYFRKDICKGGNAVVDGCGKAQNSTELAAEEYTLMSIDTIINGKEGVFPGLIPILNSYLENMEVDVDTRCSILNYLKLIKKRASGELMTVARWMREFIANHPDYKQDSVITDEMNYSLILKCNQIANELCECPELLGSAFRKVKYSGSKTDSSN [GCLC]	0.0288	-0.172	52	51.8	-0.677	-1.1
MGLQLRALLGAFGRWTLRLGPRPSCSPRMAGNAEPPPAGAACPQDRRSCSGRAGGDRVWEDGEHPAKKLKSGGDEERREKPPKRKIVLLMAYSGKGYHGMQRNVGSSQFKTIEDDLVSALVRSGCIPENHGEDMRKMSFQRCARTDKGVSAAGQVVSLKVWLIDDILEKINSHLPSHIRILGLKRVTGGFNSKNRCDARTYCYLLPTFAFAHKDRDVQDETYRLSAETLQQVNRLLACYKGTHNFHNFTSQKGPQDPSACRYILEMYCEEPFVREGLEFAVIRVKGQSFMMHQIRKMVGLVVAIVKGYAPESVLERSWGTEKVDVPKAPGLGLVLERVHFEKYNQRFGNDGLHEPLDWAQEEGKVAAFKEEHIYPTIIGTERDERSMAQWLSTLPIHNFSATALTAGGTGAKVPSPLEGSEGDGDTD [PUS1]	0.281	-0.119	46.8	48.7	1.9	6.23
MGLQPLEFSDCYLDSPWFRERIRAHEAELERTNKFIKELIKDGKNLIAATKSLSVAQRKFAHSLRDFKFEFIGDAVTDDERCIDASLREFSNFLKNLEEQREIMALSVTETLIKPLEKFRKEQLGAVKEEKKKFDKETEKNYSLIDKHLNLSAKKKDSHLQEADIQVEQNRQHFYELSLEYVCKLQEIQERKKFEFVEPMLSFFQGMFTFYHQGHELAKDFNHYKMELQINIQNTRNRFEGTRSEVEELMNKIRQNPKDHKRASQFTAEGYLYVQEKRPAPFGSSWVKHYCMYRKAAKKFNMIPFEHRSGGKLGDGEVFFLKECTKRHTDSIDRRFCFDIEAADRPGVSLTMQAFSEEERKQWLEALGGKEALSHSFNTAIIPRPEGNAQLDKMGFTIIRKCISAVETRGINDQGLYRVVGVSSKVQRLLSMLMDVKTCNEVDLENSADWEVKTITSALKQYLRSLPEPLMTYELHGDFIVPAKSGSPESRVNAIHFLVHKLPEKNKEMLDILVKHLTNVSNHSKQNLMTVANLGVVFGPTLMRPQEETVAALMDLKFQNIVVEILIENHEKIFRTPPDTTFPEPTCLSASPPNAPPRQSKRQGQRTKRPVAVYNLCLELEDGDNPYPSKEDTPTSSLDSLSSPSPVTTAVPGPPGPDKNHLLADGGSFGDWASTIPGQTRSSMVQWLNPQSPTTTSSNSAVTPLSPGSSPFPFSPPATVADKPPESIRSRKARAVYPCEAEHSSELSFEIGAIFEDVQTSREPGWLEGTLNGKRGLIPQNYVKLL [ARHGAP10]	-0.255	0.08	51.7		-0.188	-0.186
MGLSPSAPAVAVQASNASASPPSGCPMHEGKMKGCPVNTEPSGPTCEKKTYSVPAHQERAYEYVECPIRGTAAENKENLDPSNLMPPPNQTPAPDQPFALSTVREESSIPRADSEKKWVYPSEQMFWNAMLKKGWKWKDEDISQKDMYNIIRIHNQNNEQAWKEILKWEALHAAECPCGPSLIRFGGKAKEYSPRARIRSWMGYELPFDRHDWIINRCGTEVRYVIDYYDGGEVNKDYQFTILDVRPALDSLSAVWDRMKVAWWRWTS [HCCS]	0.328	-0.0745	55.3	55.1	-0.00681	-0.977
MGLYAAAAGVLAGVESRQGSIKGLVYSSNFQNVKQLYALVCETQRYSAVLDAVIASAGLLRAEKKLRPHLAKVLVYELLLGKGFRGGGGRWKALLGRHQARLKAELARLKVHRGVSRNEDLLEVGSRPGPASQLPRFVRVNTLKTCSDDVVDYFKRQGFSYQGRASSLDDLRALKGKHFLLDPLMPELLVFPAQTDLHEHPLYRAGHLILQDRASCLPAMLLDPPPGSHVIDACAAPGNKTSHLAALLKNQGKIFAFDLDAKRLASMATLLARAGVSCCELAEEDFLAVSPSDPRYHEVHYILLDPSCSGSGMPSRQLEEPGAGTPSPVRLHALAGFQQRALCHALTFPSLQRLVYSTCSLCQEENEDVVRDALQQNPGAFRLAPALPAWPHRGLSTFPGAEHCLRASPETTLSSGFFVAVIERVEVPR [NSUN5]	-0.194	0.282	48.7	50.2	0.348	-0.0976
MGNCHTVGPNEALVVSGGCCGSDYKQYVFGGWAWAWWCISDTQRISLEIMTLQPRCEDVETAEGVALTVTGVAQVKIMTEKELLAVACEQFLGKNVQDIKNVVLQTLEGHLRSILGTLTVEQIYQDRDQFAKLVREVAAPDVGRMGIEILSFTIKDVYDKVDYLSSLGKTQTAVVQRDADIGVAEAERDAGIREAECKKEMLDVKFMADTKIADSKRAFELQKSAFSEEVNIKTAEAQLAYELQGAREQQKIRQEEIEIEVVQRKKQIAVEAQEILRTDKELIATVRRPAEAEAHRIQQIAEGEKVKQVLLAQAEAEKIRKIGEAEAAVIEAMGKAEAERMKLKAEAYQKYGDAAKMALVLEALPQIAAKIAAPLTKVDEIVVLSGDNSKVTSEVNRLLAELPASVHALTGVDLSKIPLIKKATGVQV [FLOT2]	-1.04	0.153	56.8	55.8	-2.8	-0.0606
